US20100092497A1, “METHODS OF IMMUNE OR HAEMATOLOGICAL ENHANCEMENT, INHIBITING TUMOUR FORMATION OR GROWTH, AND TREATING OR PREVENTING CANCER” (priority 2006, published 2010)

What was measured:
[1] = tested on: EL-4 T cell thymic lymphoma; assay: EL-4 tumour challenge in mice fed experimental diets (tumour growth, rejection, response to paclitaxel); type: in vivo, C57BL/6 mice; settings: for tumour response after paclitaxel: paclitaxel 30 mg/Kg i.p. at ~0.6 cm; for rank of efficacy in sensitising tumours to paclitaxel: diet 20 g Lf per 2.4 Kg plus paclitaxel 30 mg/Kg
EL-4 target cells = assay: Anti-tumour cytolytic activity of splenocytes (CTL assay); type: cell-based, mouse; settings: for increase in anti-tumour cytolytic activity of splenocytes compared to control mice: Example 1, day 77; for increase in anti-tumour cytolytic activity of splenocytes: Example 2, after paclitaxel
Experimental: Splenocytes were harvested 28 days following tumour cell injection, as specified. They were incubated at 37° C. with EL-4 target cells in graded E:T ratios in 96-well round-bottom plates. After a 4-hour incubation, 50 μl of supernatant was collected, and lysis was measured using the Cyto Tox 96 Assay Kit (Promega, Madison, Wis., USA). Background controls for non-specific target and effector cell lysis were included. After background subtraction, percentage of cell lysis was calculated using the formula: 100×(experimental-spontaneous effector-spontaneous target/maximum target-spontaneous target).

IL-18 = settings: as reported in WO 03/099323; cited from earlier work
[2] = 20 g Lf per 2.4 Kg diet in combination with paclitaxel treatment

B1: Fe-saturated Lf: Bovine lactoferrin of ~100% Fe saturation prepared with ferric nitrilo-triacetate (protein, UniProt P24627 20-708, looked up)
Lactotransferrin: APRKNVRWCTISQPEWFKCRRWQWRMKKLGAPSITCVRRAFALECIRAIAEKKADAVTLDGGMVFEAGRDPYKLRPVAAEIYGTKESPQTHYYAVAVVKKGSNFQLDQLQGRKSCHTGLGRSAGWIIPMGILRPYLSWTESLEPLQGAVAKFFSASCVPCIDRQAYPNLCQLCKGEGENQCACSSREPYFGYSGAFKCLQDGAGDVAFVKETTVFENLPEKADRDQYELLCLNNSRAPVDAFKECHLAQVPSHAVVARSVDGKEDLIWKLLSKAQEKFGKNKSRSFQLFGSPPGQRDLLFKDSALGFLRIPSKVDSALYLGSRYLTTLKNLRETAEEVKARYTRVVWCAVGPEEQKKCQQWSQQSGQNVTCATASTTDDCIVLVLKGEADALNLDGGYIYTAGKCGLVPVLAENRKSSKHSSLDCVLRPTEGYLAVAVVKKANEGLTWNSLKDKKSCHTAVDRTAGWNIPMGLIVNQTGSCAFDEFFSQSCAPGADPKSRLCALCAGDDQGLDKCVPNSKEKYYGYTGAFRCLAEDVGDVAFVKNDTVWENTNGESTADWAKNLNREDFRLLCLDGTRKPVTEAQSCHLAVAPNHAVVSRSDRAAHVKQVLLHQQALFGKNGKNCPDKFCLFKSETKNLLFNDNTECLAKLGGRPTYEEYLGTEYVTAIANLKKCSTSPLLEACAFLTR
modifications: iron-saturated (holo)
notes: Bovine lactoferrin of ~100% Fe saturation prepared with ferric nitrilo-triacetate
In the case of B1, the “tumour response after paclitaxel in mice on Lf diet” value ([1]; Example 1, diet 20 g Lf per 2.4 Kg plus paclitaxel 30 mg/Kg i.p. at tumours ~0.6 cm) is reported as “regressed to less than half their size within two weeks of administering paclitaxel, and disappeared altogether a week later”, the “mice that completely rejected the tumour challenge” value ([1]; Example 1, diet with 20 g of Lf per 2.4 Kg, ten mice) is reported as “one of ten” and the “mice that completely rejected the tumour challenge” value ([1]; Example 2, 1 g Fe-Lf diet) is reported as “one of ten”. For the same molecule, the “tumour growth rate compared to control diet” value ([1]; Example 2, 5 and 25 g per 2.4 Kg of diet) was “grew significantly (p<0.05 at days 35-49) more slowly”, the “mice that completely rejected the tumour challenge” value ([1]; Example 2, 5 g Fe-Lf diet) was “two of ten” and the “mice that completely rejected the tumour challenge” value ([1]; Example 2, 25 g Fe-Lf diet) was “three of ten”. For the same molecule, the “tumour response after paclitaxel” value ([1]; Example 2, 100 g per 2.4 Kg of diet) was “regressed over two weeks, but then re-grew”, the “tumour response after paclitaxel” value ([1]; Example 2, all but the 100 g Fe-Lf diet (1, 5, 25 g per 2.4 Kg)) was “rapidly regressed and completely disappeared over the following three to four weeks” and the “tumour growth rate compared to control diet” value ([1]; Example 2, lowest and highest doses (1 and 100 g per 2.4 Kg of diet)) was “did not differ greatly from that of mice fed the control diet”. For the same molecule, the “increase in anti-tumour cytolytic activity of splenocytes compared to control mice” value (shortened to “increase … to control mice”) (EL-4 target cells; [2]) was 6.5 fold, the “increase … to control mice” value (EL-4 target cells; the one mouse which completely resisted the tumour challenge) was 6 fold and the “increase in anti-tumour cytolytic activity of splenocytes” value (EL-4 target cells; 5 g diet) was 6.7 fold. For the same molecule, the “increase in anti-tumour cytolytic activity of splenocytes” value (EL-4 target cells; 25 g diet) was 7 fold, the “increase in anti-tumour cytolytic activity of splenocytes” value (EL-4 target cells; 100 g diet) was 1.5 fold and the “increase in anti-tumour cytolytic activity of splenocytes, agent by itself” value (EL-4 target cells; Example 4, high dose vitamin D (45.2 mg/Kg) by itself or Fe-saturated Lf) was 1.9 fold.

B2: native Lf: Bovine lactoferrin of greater than 90% purity from Fonterra, native Fe saturation (protein, UniProt P24627 20-708, looked up)
Lactotransferrin: APRKNVRWCTISQPEWFKCRRWQWRMKKLGAPSITCVRRAFALECIRAIAEKKADAVTLDGGMVFEAGRDPYKLRPVAAEIYGTKESPQTHYYAVAVVKKGSNFQLDQLQGRKSCHTGLGRSAGWIIPMGILRPYLSWTESLEPLQGAVAKFFSASCVPCIDRQAYPNLCQLCKGEGENQCACSSREPYFGYSGAFKCLQDGAGDVAFVKETTVFENLPEKADRDQYELLCLNNSRAPVDAFKECHLAQVPSHAVVARSVDGKEDLIWKLLSKAQEKFGKNKSRSFQLFGSPPGQRDLLFKDSALGFLRIPSKVDSALYLGSRYLTTLKNLRETAEEVKARYTRVVWCAVGPEEQKKCQQWSQQSGQNVTCATASTTDDCIVLVLKGEADALNLDGGYIYTAGKCGLVPVLAENRKSSKHSSLDCVLRPTEGYLAVAVVKKANEGLTWNSLKDKKSCHTAVDRTAGWNIPMGLIVNQTGSCAFDEFFSQSCAPGADPKSRLCALCAGDDQGLDKCVPNSKEKYYGYTGAFRCLAEDVGDVAFVKNDTVWENTNGESTADWAKNLNREDFRLLCLDGTRKPVTEAQSCHLAVAPNHAVVSRSDRAAHVKQVLLHQQALFGKNGKNCPDKFCLFKSETKNLLFNDNTECLAKLGGRPTYEEYLGTEYVTAIANLKKCSTSPLLEACAFLTR
In the case of B2, the “rank of efficacy in sensitising tumours to paclitaxel” value (from here on “rank of efficacy”) ([1]; Example 1) is reported as 50% Fe-saturated Lf>native Lf>apoLf and the “increase … to control mice” value (EL-4 target cells; [2]) is reported as 3.4 fold.

B3: 50% Fe-saturated Lf: Bovine lactoferrin supplemented with Fe to ~50% saturation (protein, UniProt P24627 20-708, looked up)
Lactotransferrin: APRKNVRWCTISQPEWFKCRRWQWRMKKLGAPSITCVRRAFALECIRAIAEKKADAVTLDGGMVFEAGRDPYKLRPVAAEIYGTKESPQTHYYAVAVVKKGSNFQLDQLQGRKSCHTGLGRSAGWIIPMGILRPYLSWTESLEPLQGAVAKFFSASCVPCIDRQAYPNLCQLCKGEGENQCACSSREPYFGYSGAFKCLQDGAGDVAFVKETTVFENLPEKADRDQYELLCLNNSRAPVDAFKECHLAQVPSHAVVARSVDGKEDLIWKLLSKAQEKFGKNKSRSFQLFGSPPGQRDLLFKDSALGFLRIPSKVDSALYLGSRYLTTLKNLRETAEEVKARYTRVVWCAVGPEEQKKCQQWSQQSGQNVTCATASTTDDCIVLVLKGEADALNLDGGYIYTAGKCGLVPVLAENRKSSKHSSLDCVLRPTEGYLAVAVVKKANEGLTWNSLKDKKSCHTAVDRTAGWNIPMGLIVNQTGSCAFDEFFSQSCAPGADPKSRLCALCAGDDQGLDKCVPNSKEKYYGYTGAFRCLAEDVGDVAFVKNDTVWENTNGESTADWAKNLNREDFRLLCLDGTRKPVTEAQSCHLAVAPNHAVVSRSDRAAHVKQVLLHQQALFGKNGKNCPDKFCLFKSETKNLLFNDNTECLAKLGGRPTYEEYLGTEYVTAIANLKKCSTSPLLEACAFLTR
modifications: ~50% iron-saturated
For B3, the “rank of efficacy” value ([1]; Example 1) was 50% Fe-saturated Lf>native Lf>apoLf and the “increase … to control mice” value (EL-4 target cells; [2]) was 1.5 fold.

B4: bovine lactoferrin: Single-chain iron-binding glycoprotein of 78 kDa present in bovine milk (protein, UniProt P24627 20-708, looked up)
Lactotransferrin: APRKNVRWCTISQPEWFKCRRWQWRMKKLGAPSITCVRRAFALECIRAIAEKKADAVTLDGGMVFEAGRDPYKLRPVAAEIYGTKESPQTHYYAVAVVKKGSNFQLDQLQGRKSCHTGLGRSAGWIIPMGILRPYLSWTESLEPLQGAVAKFFSASCVPCIDRQAYPNLCQLCKGEGENQCACSSREPYFGYSGAFKCLQDGAGDVAFVKETTVFENLPEKADRDQYELLCLNNSRAPVDAFKECHLAQVPSHAVVARSVDGKEDLIWKLLSKAQEKFGKNKSRSFQLFGSPPGQRDLLFKDSALGFLRIPSKVDSALYLGSRYLTTLKNLRETAEEVKARYTRVVWCAVGPEEQKKCQQWSQQSGQNVTCATASTTDDCIVLVLKGEADALNLDGGYIYTAGKCGLVPVLAENRKSSKHSSLDCVLRPTEGYLAVAVVKKANEGLTWNSLKDKKSCHTAVDRTAGWNIPMGLIVNQTGSCAFDEFFSQSCAPGADPKSRLCALCAGDDQGLDKCVPNSKEKYYGYTGAFRCLAEDVGDVAFVKNDTVWENTNGESTADWAKNLNREDFRLLCLDGTRKPVTEAQSCHLAVAPNHAVVSRSDRAAHVKQVLLHQQALFGKNGKNCPDKFCLFKSETKNLLFNDNTECLAKLGGRPTYEEYLGTEYVTAIANLKKCSTSPLLEACAFLTR
In the case of B4, the “intestinal IL-18 levels compared to recombinant human lactoferrin” value (IL-18) is given as “lesser increase” and the “serum levels of IL-18” value (IL-18) is given as “did not increase”.

B5: apoLf: Bovine lactoferrin with Fe removed by citric acid chelation (protein, UniProt P24627 20-708, looked up)
Lactotransferrin: APRKNVRWCTISQPEWFKCRRWQWRMKKLGAPSITCVRRAFALECIRAIAEKKADAVTLDGGMVFEAGRDPYKLRPVAAEIYGTKESPQTHYYAVAVVKKGSNFQLDQLQGRKSCHTGLGRSAGWIIPMGILRPYLSWTESLEPLQGAVAKFFSASCVPCIDRQAYPNLCQLCKGEGENQCACSSREPYFGYSGAFKCLQDGAGDVAFVKETTVFENLPEKADRDQYELLCLNNSRAPVDAFKECHLAQVPSHAVVARSVDGKEDLIWKLLSKAQEKFGKNKSRSFQLFGSPPGQRDLLFKDSALGFLRIPSKVDSALYLGSRYLTTLKNLRETAEEVKARYTRVVWCAVGPEEQKKCQQWSQQSGQNVTCATASTTDDCIVLVLKGEADALNLDGGYIYTAGKCGLVPVLAENRKSSKHSSLDCVLRPTEGYLAVAVVKKANEGLTWNSLKDKKSCHTAVDRTAGWNIPMGLIVNQTGSCAFDEFFSQSCAPGADPKSRLCALCAGDDQGLDKCVPNSKEKYYGYTGAFRCLAEDVGDVAFVKNDTVWENTNGESTADWAKNLNREDFRLLCLDGTRKPVTEAQSCHLAVAPNHAVVSRSDRAAHVKQVLLHQQALFGKNGKNCPDKFCLFKSETKNLLFNDNTECLAKLGGRPTYEEYLGTEYVTAIANLKKCSTSPLLEACAFLTR
modifications: iron-free (apo)
notes: Bovine lactoferrin with Fe removed by citric acid chelation
With B5 the “rank of efficacy” value ([1]; Example 1) was 50% Fe-saturated Lf>native Lf>apoLf and the “increase … to control mice” value (EL-4 target cells; [2]) was 2.4 fold.
